We go through three substances from paper PMC2821400.

This assay has as its target actin of the F-actin structures in focal adhesions of Vero cells (monkey (endogenous in Vero)) (UniProt Q76N69). Nature of the assay: FRAP (fluorescence recovery after photobleaching); GFP-L-plastin variants bleached in a 5 µm spot in focal adhesions of live Vero cells, 37°C; curves fitted with a two-binding-state model, reaction dominant regime; pseudo-association rates k*on = kon·Seq.

For the substance “Ser5/Ala (S5/A) GFP-L-plastin, expressed in Vero cells (from UniProt P13796 1-627) (natural protein)”, the fold change of k*2on against WT- and S5/E-L-plastin stood at 2 fold lower; the k1off (dissociation rate, first quick binding state) turned out to be 0.073 s⁻¹; the k*1on (pseudo-association rate, first quick binding state) is 0.173 s⁻¹.

For “Ser5/Glu (S5/E) GFP-L-plastin, expressed in Vero cells (from UniProt P13796 1-627) (natural protein)”, the k1off (dissociation rate, first quick binding state) is 0.612 s⁻¹ and the k*1on (pseudo-association rate, first quick binding state) came to 0.42 s⁻¹.

Substance “wild type (WT) L-plastin fused to GFP, expressed in Vero cells (from UniProt P13796 1-627) (natural protein)” registered a Feq (equilibrium normalized concentration of free molecules) of 0.513; a k1off (dissociation rate, first quick binding state) of 0.616 s⁻¹; a k2off (dissociation rate, second slow binding state) of 0.03 s⁻¹; a k*1on (pseudo-association rate, first quick binding state) of 0.338 s⁻¹. For the same substance, the k*2on (pseudo-association rate, second slow binding state) came to 0.01 s⁻¹.
